Test results as given in patent US20240239855A1 (CYTOKI PHARMA, published 2024).
Residue numbers refer to the chain shown, from its start.

T1: human IL-22 receptor (human IL-22Ra and human IL-10Rb) on cells (human, UniProt Q8N6P7 16-574; Q08334 20-325)
T1 sequence (looked up) 1: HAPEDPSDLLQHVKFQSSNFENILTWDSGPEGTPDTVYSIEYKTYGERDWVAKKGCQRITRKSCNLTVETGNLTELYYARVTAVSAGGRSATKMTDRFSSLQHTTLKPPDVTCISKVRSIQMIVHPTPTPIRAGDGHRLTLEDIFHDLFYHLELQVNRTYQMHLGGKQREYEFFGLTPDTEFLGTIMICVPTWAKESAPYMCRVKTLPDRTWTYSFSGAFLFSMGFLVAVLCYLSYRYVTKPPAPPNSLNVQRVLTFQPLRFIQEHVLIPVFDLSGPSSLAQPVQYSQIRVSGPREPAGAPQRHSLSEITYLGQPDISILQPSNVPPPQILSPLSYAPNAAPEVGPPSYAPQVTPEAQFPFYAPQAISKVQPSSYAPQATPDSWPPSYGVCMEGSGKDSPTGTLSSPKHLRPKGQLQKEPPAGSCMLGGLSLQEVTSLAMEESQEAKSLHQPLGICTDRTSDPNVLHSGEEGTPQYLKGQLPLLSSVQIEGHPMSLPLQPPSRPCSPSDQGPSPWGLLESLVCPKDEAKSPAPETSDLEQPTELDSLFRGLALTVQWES
T1 sequence (looked up) 2: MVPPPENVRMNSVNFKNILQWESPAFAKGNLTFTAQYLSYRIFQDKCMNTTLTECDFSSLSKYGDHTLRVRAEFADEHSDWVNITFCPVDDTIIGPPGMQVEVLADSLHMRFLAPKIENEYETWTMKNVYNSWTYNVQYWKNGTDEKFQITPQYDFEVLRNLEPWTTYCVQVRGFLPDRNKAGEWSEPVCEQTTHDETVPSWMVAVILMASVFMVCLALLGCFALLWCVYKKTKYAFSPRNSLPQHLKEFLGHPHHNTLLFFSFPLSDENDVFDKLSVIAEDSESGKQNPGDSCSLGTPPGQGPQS

B1: Comparator 6 (ligand)
chain: GPGCPISSHCRLDKSNFQQPYITNRTFMLAKEASLADNNTDVRLIGEKLFHGVSMSERCYLMKQVLNFTLEEVLFPQSDRFQPYMQEVVPFLARLSNRLSTCHIEGDDLHIQRNVQKLKDTVKKLGESGEIKAIGELDLLFMSLRNACI
modifications: C16 diacid attached through linker γGlu-OEG-OEG-C2DA-Ac to Cys 1C
B2: Comparator 4 (ligand)
chain: B1 chain
modifications: C18 diacid attached through linker γGlu-OEG-OEG-C2DA-Ac to Cys 1C
B3: native mature human IL-22 (hIL-22) (ligand)
chain: APISSHCRLDKSNFQQPYITNRTFMLAKEASLADNNTDVRLIGEKLFHGVSMSERCYLMKQVLNFTLEEVLFPQSDRFQPYMQEVVPFLARLSNRLSTCHIEGDDLHIQRNVQKLKDTVKKLGESGEIKAIGELDLLFMSLRNACI
B4: Derivative 1 (ligand)
chain: B1 chain
modifications: C16 monoacid attached through linker γGlu-OEG-OEG-εLys-αAc to Cys 1C (position 1 of hIL-22; position 4 in the sequence listing entry)
B5: Comparator 14 (ligand)
chain: B3 chain with A1G
B6: Comparator 7 (ligand)
chain: GPGSGSGSCGSGSGSAPISSHCRLDKSNFQQPYITNRTFMLAKEASLADNNTDVRLIGEKLFHGVSMSERCYLMKQVLNFTLEEVLFPQSDRFQPYMQEVVPFLARLSNRLSTCHIEGDDLHIQRNVQKLKDTVKKLGESGEIKAIGELDLLFMSLRNACI
modifications: C16 diacid attached through linker γGlu-OEG-OEG-C2DA-Ac to Cys -7C (in the N-terminal peptide)
B7: Comparator 11 (ligand)
chain: GAPISSCCRLDKSNFQQPYITNRTFMLAKEASLADQNTDVRLIGEKLFHGVSMSERCYLMKQVLQFTLEEVLFPQSDRFQPYMQEVVPFLARLSNRLSTCHIEGDDLHIQRNVQKLKDTVKKLGESGEIKAIGELDLLFMSLRNACI
modifications: C18 diacid attached through linker γGlu-OEG-OEG-C2DA-Ac to Cys 6C
B8: Comparator 12 (ligand)
chain: B3 chain with A33C, N35Q, N64Q
modifications: C18 diacid attached through linker γGlu-OEG-OEG-C2DA-Ac to Cys 33C
B9: Comparator 18 (ligand)
chain: B1 chain with N38Q, N67Q
B10: Comparator 9 (ligand)
chain: B1 chain with N38Q, N67Q
modifications: C18 diacid attached through linker γGlu-OEG-OEG-C2DA-Ac to Cys 1C
B11: Comparator 17 (ligand)
chain: B1 chain
B12: Comparator 13 (ligand)
chain: B1 chain with N38Q, N67Q
modifications: C16 diacid attached through linker γGlu-OEG-OEG-C2DA-Ac to Cys 1C
B13: Comparator 5 (ligand)
chain: B6 chain
modifications: C18 diacid attached through linker γGlu-OEG-OEG-C2DA-Ac to Cys -7C (in the N-terminal peptide)
B14: Comparator 1 (ligand)
chain: B3 chain with N35Q, N64Q, L106C
modifications: C18 diacid attached through linker γGlu-OEG-OEG-C2DA-Ac to Cys 106C
B15: Comparator 2 (ligand)
chain: B3 chain with N35Q, N64Q, R95C
modifications: C18 diacid attached through linker γGlu-OEG-OEG-C2DA-Ac to Cys 95C
B16: Comparator 19 (ligand)
chain: B3 chain with R95C
modifications: C18 diacid attached through linker γGlu-OEG-OEG-C2DA-Ac to Cys 95C
B17: Comparator 3 (ligand)
chain: B3 chain with L106C
modifications: C18 diacid attached through linker γGlu-OEG-OEG-C2DA-Ac to Cys 106C
B18: Derivative 2 (ligand)
chain: B3 chain with A1C
modifications: C16 monoacid attached through linker γGlu-OEG-OEG-εLys-αAc to Cys 1C

Target: T1, human IL-22 receptor (human IL-22Ra and …)
Experiment: cell-based or functional assay

| fold reduction in potency compared to hIL-22, BHK cell reporter gene assay | fold reduced potency compared to hIL-22, HepG2 cell assay for pSTAT3 | Binder |
| --- | --- | --- |
| 4 fold | – | B1 |
| 7 fold | 2.5 fold | B2 |

Target: T1, human IL-22 receptor (human IL-22Ra and …)
Experiment: cell-based or functional assay
Remark: another data set of the same source

| EC50, BHK cell reporter gene assay (STAT3-induced luciferase) | Binder |
| --- | --- |
| 0.07 nM | B3 |
| 0.06 nM | B4 |

Target: T1, human IL-22 receptor (human IL-22Ra and …)
Experiment: cell-based or functional assay
Remark: another data set of the same source

| In vitro EC50, BHK cell reporter gene assay (STAT3-induced luciferase) | Binder |
| --- | --- |
| 0.06 nM | B5 |
| 0.06 nM | B4 |
| 0.3 nM | B1 |
| 0.48 nM | B2 |

Target: T1, human IL-22 receptor (human IL-22Ra and …)
Experiment: cell-based or functional assay
Remark: another data set of the same source

| EC50, BHK cell reporter gene assay (STAT3-induced luciferase) | Binder |
| --- | --- |
| 0.18 nM | B6 |
| 1.24 nM | B7 |
| 0.07 nM | B3 |
| 0.28 nM | B8 |
| 0.06 nM | B5 |
| 0.19 nM | B9 |
| 0.61 nM | B10 |
| 0.3 nM | B1 |
| 0.09 nM | B11 |
| 0.37 nM | B12 |
| 0.48 nM | B2 |

Target: T1, human IL-22 receptor (human IL-22Ra and …)
Experiment: cell-based or functional assay
Remark: another data set of the same source

| EC50, HepG2 cell assay for pSTAT3 (AlphaScreen SureFire STAT3 p-Tyr705) | Binder |
| --- | --- |
| 6.98 nM | B13 |
| 3.88 nM | B3 |
| 4.73 nM | B5 |
| 14.9 nM | B10 |
| 12.1 nM | B11 |
| 10.1 nM | B2 |

Target: T1, human IL-22 receptor (human IL-22Ra and …)
Experiment: cell-based or functional assay
Remark: another data set of the same source

| EC50, BHK cell reporter gene assay (STAT3-induced luciferase) | Fold change EC50 compared to hIL-22, BHK cell reporter gene assay | Binder |
| --- | --- | --- |
| 0.07 nM | – | B3 |
| 0.23 nM | 3 fold | B14 |
| 0.36 nM | 5 fold | B15 |

Target: T1, human IL-22 receptor (human IL-22Ra and …)
Experiment: cell-based or functional assay
Remark: another data set of the same source

| EC50, BHK cell reporter gene assay (STAT3-induced luciferase), second laboratory | Fold change EC50 compared to hIL-22, BHK cell reporter gene assay, second laboratory | Binder |
| --- | --- | --- |
| 0.027 nM | – | B3 |
| 0.31 nM | 11 fold | B16 |
| 0.085 nM | 3 fold | B17 |

Target: T1, human IL-22 receptor (human IL-22Ra and …)
Experiment: cell-based or functional assay
Remark: another data set of the same source

| EC50, BHK cell reporter gene assay (STAT3-induced luciferase), second laboratory | Binder |
| --- | --- |
| 0.03 nM | B3 |
| 0.03 nM | B18 |
